Results taken from the nanobody polyreactivity screen of Harvey et al. (2022).

Assay: yeast display, Sf9 membrane polyspecificity reagent, FACS + sequencing; frameworks hold sequencing errors
Summary of the method: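 Nanobodies came from a synthetic yeast display library in Saccharomyces cerevisiae BJ5465, induced with galactose for 36–48 hours and stained for 1 hour at 4 °C with 10% biotinylated, detergent-solubilized Sf9 membrane reagent. Cells were enriched on streptavidin microbeads and then FACS-sorted, with low and high (top ~1%) gates set on anti-HA fluorescence for expression and streptavidin fluorescence for reagent binding. Each polyreactivity label reflects the gate a clone came from. Genes were amplified by colony PCR, sequenced by MiSeq 2 × 250 and filtered by CDR length.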

Row | Sequence | polyreactivity (PSR sort gate)
1 | QVQLVESGGGLVQAGGSLRLSCAASGSIFRYNAMGWYRQAPGKERELVASISISDGSTYYADSVKGRFTISRDNAKNTVYLQMNSLKPEDTAVYYCAARTRDFYYPYDYWGQGTQVTVSS | low polyreactivity
2 | QVQLVESGGGLVQAGGSLRLSCAASGSIFRYNAMGWYRQAPGKERELVAVITSTGSTSYADSVKGRFTISRDNAKNTVYLQMNSLKPEDTAVYYCAATRERHYSYQYLVPYYYWGQGTQVTVSS | high polyreactivity
3 | QVQLVESGGGLVQAGGSLRLSCAASGSIFRYYAMGWYIQAPGKERELVASITRGGTRTYYADSVKGRFTISRDYAQNTVYLQMNSLKPEDTAVYYCAATYAWYVAPTYDYWGQGTQVTVSS | high polyreactivity
4 | QVQLVESGGGLVQAGGSLRLSCAASGSIFRYYAMGWYRQAPGKEREFVASITYRGGRTYYADSVKGRFTISRDNAKNTVYLQLNSLKPEDTAVYYCAARTRAGAWTSKYLDYWGQGTQVTVSS | high polyreactivity
5 | QVQLVESGGGLVQAGGSLRLSCAASGSIFRYYAMGWYRQAPGKERELVAAIRWSGGRTYYADSVKGRFTISRDNAKNTVYLQMNSLKPEDTAVYYCAADQPDYKTNVRYYYWGQGTQVTVSS | high polyreactivity
6 | QVQLVESGGGLVQAGGSLRLSCAASGSIFRYYAMGWYRQAPGKERELVAAISRRGSSTYYPDSVKGRFTISRDNAKNTVYLQMNSLKPEDTAVYYCATAYRGRAWGYDYWGQGTQVTVSS | high polyreactivity
7 | QVQLVESGGGLVQAGGSLRLSCAASGSIFRYYAMGWYRQAPGKERELVAAISSSGGSTYYADSVKGRFTISRDNAKNTVYLQMNSLKPEDTAVYYCARDWPSYYARQYDYWGQGTQVTVSS | high polyreactivity
8 | QVQLVESGGGLVQAGGSLRLSCAASGSIFRYYAMGWYRQAPGKERELVAGISRSGGSTYYADSEKGRFTISRDNAKNTVYLQMNSLKPEDTAVYYCAATAYSPRGKRYDSWGQVTQVTVSS | high polyreactivity
9 | QVQLVESGGGLVQAGGSLRLSCAASGSIFRYYAMGWYRQAPGKERESVADITSSGGSTYYADSVKGRFTISRDNAKNTVYLQMNSLKPEDTAVSYCAREDNLRHQSDSRYDYWGQGTQVTVSS | low polyreactivity
10 | QVQLVESGGGLVQAGGSLRLSCAASGSIFRYYDMGWYRQAPGKERELVAAISWSGGTTYYADSVKGRFTISRDNAKNSVYLQMNSLNPEDTAVYYCNRVRYPSFVYWGQGTQVTVSS | high polyreactivity
11 | QVQLVESGGGLVQAGGSLRLSCAASGSIFRYYDMGWYRQAPGKERELVAAISWSGGTTYYADSVKGRFTISRDNAKNTVYLQMNSLKPEDTAVYYCNRVRYPSYDYWGQGTQVTVSS | high polyreactivity
12 | QVQLVESGGGLVQAGGSLRLSCAASGSIFRYYDMGWYRQAPGKERELVAAITYSGGGTYYADSLKGRFTISRDNAKNTVYLQMNSLKPEDTAVYYCAAEPYYGWQRLDYWGQGTQVTVSS | low polyreactivity
13 | QVQLVESGGGLVQAGGSLRLSCAASGSIFRYYTMGWYRQAPGKERELVARISSSGSTNYADSVKGRFTISRDNAKNTVYLQMNSLKPEDTAVYYCAARSFSWAGYYYWGQGTQVTVSS | low polyreactivity
14 | QVQLVESGGGLVQAGGSLRLSCAASGSIFRYYTMGWYRQEPGKERELVAAISCNGGRTYYADSVKGRFTISCDNAKNTVYLQMNSLKPEDTAVYYCNAVYILTETWYDYWGQGTQVTVSS | high polyreactivity
15 | QVQLVESGGGLVQAGGSLRLSCAASGSIFRYYVMGWYRQAPGKERELVAAINGGGGSTYYADSVKGRFTISRDNAKNTVYLQMNSLKPEDTAVYYCNAVGGTRGKYPYFKYGYWGQGTQVTVSS | high polyreactivity
16 | QVQLVESGGGLVQAGGSLRLSCAASGSIFSANAMGWYRQAPGKERELVAAIRRTGGSTYYADSVKGRFTISRDNAKNTVYLQMNSLKPEDTAVYFCTKRHSILYEGGYDYWGQGTQVTVSS | low polyreactivity
17 | QVQLVESGGGLVQAGGSLRLSCAASGSIFSANVMGWYRQAPGKERELVAAITRGGGTYYADSVKGRFTISRDNAKNTVYLQMNSLKPEDTAVYYCNDDYTLSVYGTTYWYNYWGQGTQVTVSS | high polyreactivity
18 | QVQLVESGGGLVQAGGSLRLSCAASGSIFSANVMVWYRQAPGKEWELVAASRRGGTTYYADSVKGRFTISRDNAKNTVYLQMNSLKPEDTAVYYCATDGNFGSYLRFAVAYDYWGQGTQVTVSS | low polyreactivity
19 | QVQLVESGGGLVQAGGSLRLSCAASGSIFSDYTMGWYRQAPGKERELVAAISGIGGSTYYADSVKGRFTISRDNAKNTVYLQMNSLTPEDTAVYYCAPDDYYYPYFSHDYWGQGTQVTVSS | low polyreactivity
20 | QVQLVESGGGLVQAGGSLRLSCAASGSIFSFYAMGWYRQAPGKERELVAAIDVSGGSTYYADSVKGRFTISRDNAKNTVYLQMNSLKPEDTAVYYCAKDVRDQYDYWGQGTQVTVSS | low polyreactivity
21 | QVQLVESGGGLVQAGGSLRLSCAASGSIFSFYAMGWYRQAPGKERELVAAITSDGSTDYADSVKGRFTISRDNAKNTVYLQMNSLKPEDTAVYYCAADYIVRVVSRYRYGYEYWGQGTQVTVSS | low polyreactivity
22 | QVQLVESGGGLVQAGGSLRLSCAASGSIFSFYAMGWYRQAPGKERELVATISSGDNTNYADSVKGRFTISRDNAKNTVYLQMISLKPEDTAVYYCAADAWGVDREYDYWGQGTQVTVSS | low polyreactivity

Row | Sequence | polyreactivity (PSR sort gate)
23 | QVQLVESGGGLVQAGGSLRLSCAASGSIFSFYTMGWYRQAPGKERELVARIRSSGGDTYYADSVKGRFTISRDNAKNTVYLQMNSLKPEDTAVYYCARDGYHRDYDYWGQGTQVTVSS | low polyreactivity
24 | QVQLVESGGGLVQAGGSLRLSCAASGSIFSGNAMGRYRQAPGKERELVAAISRSGGSTYYADSVKGRFTISRDNAKNTVYLQMNSLKPEDTAVYYCAAYRTHGPPRAIRFDYWGQGTQVTVSS | high polyreactivity
25 | QVQLVESGGGLVQAGGSLRLSCAASGSIFSGNAMGWYRQAPGKERELVAAISRSGGSTYYADSVKGRFTISRDNAKNTVYLQMNSLKPEDTAVYYCAAYRTHGPPRAIRFDYWGQGTQVTVSS | high polyreactivity
26 | QVQLVESGGGLVQAGGSLRLSCAASGSIFSGNAMGWYRQAPGKERELVAAISRSGGSTYYADSVMGRFTISRDNAKNTVYLQMNSLKPEDTAVYYCNAGRYRAGGWGVGEGYWGQGTQVTVSS | high polyreactivity
27 | QVQLVESGGGLVQAGGSLRLSCAASGSIFSGNAMGWYRQAPGKERELVAFISWNAVGTYYSDSVKGRFTISRDNAKNTVYLQLNSLKPEDTAVYYCSAVRYTGFYYWGQGTQVTVSS | high polyreactivity
28 | QVQLVESGGGLVQAGGSLRLSCAASGSIFSGNAMGWYRQAPGTERELVATISWSGGSTNYADSVKGRFTISRDNAKNTVYIQMNSLKPEETSVYYCNAYVAYWGWVYRVDYWRQGTQVTVSS | low polyreactivity
29 | QVQLVESGGGLVQAGGSLRLSCAASGSIFSGYAMGWYRQAPGKERELVAAITWRGGSTYYADSVKGRFTISRDNAKNTVYLQMNSLKPEDTAVYYCARVWAWSRYDYWGQGTEVTVSS | high polyreactivity
30 | QVQLVESGGGLVQAGGSLRLSCAASGSIFSGYTMGWYRQAPGKERELVATISSSGGRTRYADSVKGRFTISRDNAKNTVYLQMNSLKPEDTAVYYCAAAYYVKYNSEYEYWGQGTQVTVSS | high polyreactivity
31 | QVQLVESGGGLVQAGGSLRLSCAASGSIFSGYTMGWYRQAPGQERELVAAISYRGGRTYYADSVKGRFTISRDNAKNTVYLQMNSLKPEDTAVYYCNAAPYITRRHDYWGQGTQVTVSS | high polyreactivity
32 | QVQLVESGGGLVQAGGSLRLSCAASGSIFSIYAMGWYRQAPGKERELVAAIDSGTSTTYADSVKGRFRISRDNAKKTVYLQMKSLKPEDTAVYYCAAALYSDVAAVATFGYYWGQGTQVTVSS | low polyreactivity
33 | QVQLVESGGGLVQAGGSLRLSCAASGSIFSIYAMGWYRQAPGKERELVAAISWSGGSTYYADSVKGRFTISRDNAKNTVYLQMTSQKPEDTAVYYCLRQDYHYHPYDYWGQGTQVTVSS | low polyreactivity
34 | QVQLVESGGGLVQAGGSLRLSCAASGSIFSIYAMGWYRQAPGKERELVAAITWGGGSTYYADSVKGRFTISRDNAKNTVNLQMNSLKPEDTAVYYCAADSLTWFGTYYYWGQGTQVTVSS | high polyreactivity
35 | QVQLVESGGGLVQAGGSLRLSCAASGSIFSIYAMGWYRQAPGKERELVATIRRDGSTYADSVKGRFTISRDNAKNTVYLQMNSLKPEDTAVYYCNARSYHQPRDYYWGQGTQVNVSS | low polyreactivity
36 | QVQLVESGGGLVQAGGSLRLSCAASGSIFSIYAMGWYRQAPGKERELVATIRVSGDRTYYADSVKGRFTISRDNAKNTVYLQMNSLKPEDTAVYYCAADFRGFYSWNFYYWGQGTQVTVSS | high polyreactivity
37 | QVQLVESGGGLVQAGGSLRLSCAASGSIFSKYAMGWYRQAPGKERELVAAISGSGGDTYYADSVKGRFTISRDNAKNTVYLQMNSLKPEDTAVYFCAAEDQQNGYDYWGQGTQVTVSS | low polyreactivity
38 | QVQLVESGGGLVQAGGSLRLSCAASGSIFSKYAMGWYRQAPGKEWEVVAAIRSIGGSTYYADSVMGRFTISRDNAKNTVYLQMNSRNPDDTAVYYCAARFWPAYSGWYENWGQGTQVTVSS | low polyreactivity
39 | QVQLVESGGGLVQAGGSLRLSCAASGSIFSLYAMGWYRQAPGKASELVASITSSGGRTYYADSVKGRFTITRDTAKNTVYLQMNSLKPEDTAVYYCNNQPSWVGQRVHRFDYWGQGTQVTVSS | low polyreactivity
40 | QVQLVESGGGLVQAGGSLRLSCAASGSIFSLYAMGWYRQAPGKERELVAAISSSGTSTYYADSVKGRFTISRDNAKNTVYLQMNSLKPEDTAVYYCNAYRRRATYNGDYWGQGTQVTVSS | high polyreactivity
41 | QVQLVESGGGLVQAGGSLRLSCAASGSIFSLYAMGWYRQAPGKERELVADIRTSTGRTYYADSVKGRFTISRDNAKNTVYLQMNSLKPEDTAVYYCNADEYKSAVSVGYEYWGQGTQVTVSS | high polyreactivity
42 | QVQLVESGGGLVQAGGSLRLSCAASGSIFSNNAMGLYRQAPGKVSELVASITFSGGNTYYADSVKGRFTISRDNAKNTVYLQMNSLKPEDTAVYYCNADRYPVGTAREYDSWGQGTQVTVSS | low polyreactivity
43 | QVQLVESGGGLVQAGGSLRLSCAASGSIFSPNAMGWYRQAPGKERELVAGITRSGGRTYYADSVKGRFTISRDNAMNTVYLQMNSLKPEDTAVYYCAARAFSYGLKYDYWGQGTQVTVSS | high polyreactivity
